Literature values in publication doi:10.1101/2021.10.04.463074.

Biological target: Asp85 (UniProt position 98, WARYADWLFTT)
Details: resting (ground) state of bR, protonated Schiff base, all-trans retinal

In the case of “Bacteriorhodopsin (bR) (Halobacterium salinarum (named Halobacterium halobium only in titles of cited references))”, the pKa is listed as 2 to 3.
